What was measured:
[1] = target: T1, HIV-1 gp120 monomer, strain HxBc2 (HIV-1, strain HxBc2), P04578; test: SPR; settings: remark: other sources report otherwise
[2] = target: T1, HIV-1 gp120 monomer, strain HxBc2 …; test: SPR; settings: remark: other sources report otherwise; remark: listed apart in the source

B1: wild-type cyanovirin-N (WT CV–N), P81180 1-101 (natural protein)
chain: LGKFSQTCYNSAIQGSVLTSTCERTNGGYNTSSIDLNSVIENVDGSLKWQPSNFIETCRNTQLAGSSELAAECKTRAQQFVSTKINLDDHIANIDGTLKYE
[1]
  Kd: 250 nM
[2]
  Kd: 260 nM

Source: paper PMC8231982
